Test results reported in the DeepSol protein solubility set.

Test: soluble on expression in E. coli; label from the status in PepcDB or PDB records

Sequence | soluble on expression in E. coli
MNIKKLAILGTLATTFSFEAFASTGMPKIEELTGDTRTACEVILCLSSAQGRGIKECQAPLRKYFSIRAKKWHKTLAKRRAFLDLCPAANENAKMSALTTAIQHQEYACDAGTLNSRTETRRNWVRRSSEDGGSFSRRLVRTQAYIPDFCKALYDHEFTEYKQIQKPKYVCDANKWYSQADWNRGFERVEVSRKWNHREDRYDIQYKDVPIKKDCWELEHHHHHH | not soluble
MNSFIEGAHQPLLSVWRRAFLFSGALLLTACSHNASPPPFTASGFAGDHGAVRIWRKDTNDEVHLLSVFSPWHSGSTTTSEYRWQGDTLSLIELNIYSKPPEHIRARFDAHGELSFMQREVGGQKQQLSNDQIALYRYRAEQIRQTSDALRLGRVILRQGRWHADHTVTTCEGETLKPDLDSWAISHIERRQNHSSVEVSVAWLEAPEGSQLLLVANSDFCHWQPQAKSF | not soluble
MGSDKIHHHHHHMKVNLDYLGRLFTENELTEEERQLAEKLPAMRKEKGKLFCQRCNSTILEEWYLPIGAYYCRECLLMKRVRSDQTLYYFPQEDFPKQDVLKWRGQLTPFQEKVSEGLLQVVDKQKPTLVHAVTGAGKTEMIYQVVAKVINAGGAVCLASPRIDVCLELYKRLQQDFSCGIALLHGESEPYFRTPLVVATTHQLLKFYQAFDLLIVDEVDAFPYVDNPMLYHAVKNSVKENGLRIFLTATSTNELDKKVRLGELKRLNLPRRFHGNPLIIPKPIWLSDFNRYLDKNRLSPKLKSYIEKQRKTAYPLLIFASEIKKGEQLAEILQEQFPNEKIGFVSSVTEDRLEQVQAFRDGELTILISTTILERGVTFPCVDVFVVEANHRLFTKSSLIQIGGRVGRSMDRPTGDLLFFHDGLNASIKKAIKEIQMMNKEAGL | not soluble
MGHHHHHHSHAPALGGQQSVSNKLLAWSGVLEWQEKPKPASVDANTKLTRSLPCQVYVNHGENLKTEQWPQKLIMQLIPQQLLTTLGPLFRNSRMVQFHFTNKDLESLKGLYRIMGNGFAGCVHFPHTAPCEVRVLMLLYSSKKKIFMGLIPYDQSGFVNGIRQVITNHKQVQQQKLEQQQRGMGGQQAPPGLGPILEDQARPSQNLLQLRPPQPQPQ | not soluble
MGEPKDSLALFLCHESESSLNEDDDETIERSDKQEPHFTTTIDDEDYVADLVLKENLRFETLPSKTTSSSDRLIAIDWILTTRTRFGFQHQTAYIAISYFDLFLHKRFIGLQKDETWAMRLLSVACLSLAAKMEERIVPGLSQYPQDHDFVFKPDVIRKTELLILSTLDWKMNLITPFHYFNYFLAKISQDNHSVSKDLVLLRSSDSLLALTKEISFTEYRQFVVAAVTTLLASSSTSSDIRLTREEIANKFGSISWWTSNENENVYLCYQRTLEIEERKHMTPPPEIAVSREPPASGSGAKRRLSFDDSDQSSPPAKRMRRL | soluble
SKIFSKCELARKLKSMGMDGFHGYSLANWVCMAEYESNFNTQAFNGRNSNGSSDYGIFQLNSKWWCKSNSHSSANACNIMCSKFLDDNIDDDIACAKRVVKDPNGMSAWVAWVKHCKGKDLSKYLASCNL | soluble
MVSLCKLFGVTKQAFYKYVDHSTDSSARERFVLEFVKRVRSKDPGIGGMKLWLMYRNEFGTSQAFVGRDCFCAILSKYKLTIRKRFRAPRTTDSSHHLPQYPDLTRTLLLEHPDQLWVSDITYITIWLPDGSYVFCYLSLVTDAYTKEIIGYCVGDTLGSCYTVEALEMAVRRIAAKEIKGLIHHSDRGVQYASADYIAILRHNGILPSMTEDGNPKDNAIAERVNGIIKNELLQGMRFSSIQEVRKAVATAVHFYNNERPHMSLDMLTPVQAGEMQGPIRKRWISYREKYLNVALA | not soluble
MGSDKIHHHHHHMTALTPAAFHSDRNRHDAHVARIREVRPGLRIHSDDATDEFDAVMSGQCSPGLHLVLLLEGALDVSYGSRRVVLTTDGRRTGRADRDAVRPAVRMQSFLLNAVEPDTFRRRLSKGGYARRLSLAMSGEWLGHLQAASRGVLPEQLGTMLSAHLAIRFWQPTPRATALAEQIVRPPAYQPMLQAIYLESRVLELLAEAFTPLETDAAQAADASLGSRDYRRMAELRAFLASDAAQALSIDDIARHAGMSANAMQRQFRAAYGTTVFDFVREHHLQRARLALERDAVSVKQAAALAGYTSAANFATAYKRRFGVTPTLARRSDKR | not soluble
